According to PMC7589778 (Viruses, 2020):

B1: Human mitochondrial LysRS with a C-terminal HA-tag (enzyme)
chain: not shown
modifications: homodimer; mature mitochondrial form (19 specific + 576 shared residues); HA-tag left out

Experiments:
Test in all cases: AlphaScreen or HTRF
Conditions in all cases: both partners purified
[1] = target: T1, Full-length integrase from HIV-1 with a C-terminal His-tag (HIV-1)
T1 construct: source: E. coli BL21(DE3), purified (Ni-NTA, Mono S); not shown: His6, C-terminal, kept

[2] = target: Human mitochondrial LysRS with a C-terminal HA-tag (human, UniProt Q15046-2 1-625)
[3] = target: B1

| Binder | Kd [2] [nM] | other results |
| --- | --- | --- |
| B1 | – | Kd [1]: 2.6 nM |
| HIV-1 integrase with a deletion of the NTD, C-terminal His-tag (domain or fragment, homodimer; mature mitochondrial form (19 specific + 576 shared residues); HA-tag left out) MHGQVDCSPGIWQLDCTHLEGKVILVAVHVASGYIEAEVIPAETGQETAYFLLKLAGRWPVKTVHTDNGSNFTSTTVKAACWWAGIKQEFGIPYNPQSQGVIESMNKELKKIIGQVRDQAEHLKTAVQMAVFIHNFKRKGGIGGYSAGERIVDIIATDIQTKELQKQITKIQNFRVYYRDSRDPVWKGPAKLLWKGEGAVVIQDNSDIKVVPRRKAKIIRDYGKQMAGDDCVASRQDED | 3 | – |
| HIV-1 integrase catalytic core domain (deletion of the NTD and the CTD), C-terminal His-tag (domain or fragment, homodimer; mature mitochondrial form (19 specific + 576 shared residues); HA-tag left out) MHGQVDCSPGIWQLDCTHLEGKVILVAVHVASGYIEAEVIPAETGQETAYFLLKLAGRWPVKTVHTDNGSNFTSTTVKAACWWAGIKQEFGIPYNPQSQGVIESMNKELKKIIGQVRDQAEHLKTAVQMAVFIHNFKRKGGIGGYSAGERIVDIIATDIQTKE | > 400 | – |
| C-terminal domain of HIV-1 integrase starting at residue 213, C-terminal His-tag (domain or fragment, homodimer; mature mitochondrial form (19 specific + 576 shared residues); HA-tag left out) LQKQITKIQNFRVYYRDSRDPVWKGPAKLLWKGEGAVVIQDNSDIKVVPRRKAKIIRDYGKQMAGDDCVASRQDED | 190 | – |
| IN-CTD222 with a deletion of 15 C-terminal residues, C-terminal His-tag (domain or fragment, source: E. coli BL21(DE3), purified (Ni-NTA, Mono S); not shown: His6, C-terminal, kept) NFRVYYRDSRDPVWKGPAKLLWKGEGAVVIQDNSDIKVVPRRKAKIIRDYGK | – | Kd [3]: 142 nM |
